In US20230399394A1 (SUNSHINE GUOJIAN PHARMACEUTICAL SHANGHAI, published 2023):

What was measured:
[1] = target: T1, Human IL-33-his (human, UniProt O95760 112-270, biotinylated with EZ-Link NHS-Biotin where used as IL-33-his-biotin); assay: indirect ELISA, biotinylated IL-33-his on streptavidin plate
T1 construct: Used plain (SPR, cell assays) and biotinylated (ELISA); also called IL-33-his-biotin
T1 sequence: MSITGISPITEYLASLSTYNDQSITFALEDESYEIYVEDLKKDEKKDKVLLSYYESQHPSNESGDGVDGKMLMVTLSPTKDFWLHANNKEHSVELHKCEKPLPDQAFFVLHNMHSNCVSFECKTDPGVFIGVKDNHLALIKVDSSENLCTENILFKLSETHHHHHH
Description: The binding ability of murine antibody to human IL-33 protein was determined by indirect enzyme-linked immunosorbent assay (ELISA). The specific methods were as follows: The plate was pre-coated with biotin-avidin (SA) which was diluted in coating solution (50 mM carbonate coating buffer, pH 9.6) to 2 μg/ml at 4° C. overnight, then the plate was blocked with 5% skim milk powder at 37° C. for 2 hours and stored at −80° C. for later use. Biotinylated recombinant human IL-33-his protein was diluted to 0.5 μg/ml in coating solution (50 mM carbonate coating buffer, pH 9.6) and was added at 100 μl/well to the pre-coated SA plate, 37° C., 0.5 h. After washing the plate with PBST for 3 times, the antibodies to be tested were diluted by gradient with 1% BSA buffer and added into the blocked plate at 100 μl/well, and incubated at 37° C. for 1 hour. The plate was washed with PBST for 3 times, and the HRP-labeled goat anti-mouse IgG was added and placed at 37° C. for 30 min. After washing the plate with PBST for 3 times, the plate was patted on the absorbent paper to remove residual droplets as far as possible. […] OD values were read at 450 nm on the microplate reader to analyze the binding ability of the antibodies to be tested to the target antigen human IL-33-his.

[2] = target: T2, Pep16 (human, N-terminal biotin); assay: ELISA, biotinylated peptide on streptavidin plate, antibody 10 µg/mL, well 1
T2 construct: Synthetic 20-mer of human IL-33
T2 peptide: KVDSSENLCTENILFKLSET
Description: (§1) To determine the binding activity of antibody to each polypeptide fragment, the ELISA plate was pre-coated by biotin-avidin (SA) which was diluted in coating solution (50 mM carbonate coating buffer, pH 9.6) to 2 μg/ml at 4° C. overnight. The plate was washed with PBST for 3 times, and then blocked with 2% BSA prepared in PBS at room temperature for 2 h with 200 μL/well. The plate was washed once with PBST, and 864F3 and 874F7 with final concentrations of 10 μg/mL were added at 100 μL/well, respectively, and the plate was incubated at room temperature for 1 h. The plate was washed with PBST for 3 times, and the goat anti-mouse IgG labeled by HRP was added and placed at 37° C. for 30 min. After washing the plate with PBST for 3 times, the plate was patted on the absorbent paper to remove residual droplets as far as possible. 100 μl TMB developing solution was added to each well, and the plate was placed at room temperature (20±5° C.) for 5 minutes away from light; 50 μl 2M H₂SO₄ terminating solution was added to each well to terminate the substrate reaction. OD values were read at 450 nm on the microplate reader to analyze the binding ability of the antibody to each polypeptide fragment. The experimental results are shown in […]

[3] = target: T3, Pep6 (human, N-terminal biotin); assay: as above
T3 construct: Synthetic 20-mer of human IL-33
T3 peptide: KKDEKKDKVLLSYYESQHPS
Description: as §1

[4] = target: T4, Pep8 (human, N-terminal biotin); assay: as above
T4 construct: Synthetic 20-mer of human IL-33
T4 peptide: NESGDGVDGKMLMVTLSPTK
Description: as §1

[5] = target: T5, Pep4 (human, N-terminal biotin); assay: as above
T5 construct: Synthetic 20-mer of human IL-33
T5 peptide: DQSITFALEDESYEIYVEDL
Description: as §1

[6] = target: T6, Pep5 (human, N-terminal biotin); assay: as above
T6 construct: Synthetic 20-mer of human IL-33
T6 peptide: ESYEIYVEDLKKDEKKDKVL
Description: as §1

[7] = target: T7, Pep11 (human, N-terminal biotin); assay: as above
T7 construct: Synthetic 20-mer of human IL-33
T7 peptide: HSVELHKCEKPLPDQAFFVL
Description: as §1

[8] = target: T8, Pep10 (human, N-terminal biotin); assay: as above
T8 construct: Synthetic 20-mer of human IL-33
T8 peptide: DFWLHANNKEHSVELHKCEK
Description: as §1

[9] = target: T9, Pep14 (human, N-terminal biotin); assay: as above
T9 construct: Synthetic 20-mer of human IL-33
T9 peptide: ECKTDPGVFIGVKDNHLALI
Description: as §1

[10] = target: T10, Pep13 (human, N-terminal biotin); assay: as above
T10 construct: Synthetic 20-mer of human IL-33
T10 peptide: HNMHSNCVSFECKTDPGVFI
Description: as §1

[11] = target: T11, Pep9 (human, N-terminal biotin); assay: as above
T11 construct: Synthetic 20-mer of human IL-33
T11 peptide: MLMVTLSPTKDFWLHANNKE
Description: as §1

[12] = target: T12, Pep2 (human, N-terminal biotin); assay: as above
T12 construct: Synthetic 20-mer of human IL-33
T12 peptide: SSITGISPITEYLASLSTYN
Description: as §1

[13] = target: T13, Pep1 (human, N-terminal biotin); assay: as above
T13 construct: Synthetic 20-mer of human IL-33
T13 peptide: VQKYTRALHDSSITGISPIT
Description: as §1

[14] = target: T14, Pep12 (human, N-terminal biotin); assay: as above
T14 construct: Synthetic 20-mer of human IL-33
T14 peptide: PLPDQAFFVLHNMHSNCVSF
Description: as §1

[15] = target: T15, Pep15 (human, N-terminal biotin); assay: as above
T15 construct: Synthetic 20-mer of human IL-33
T15 peptide: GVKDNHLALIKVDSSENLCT
Description: as §1

[16] = target: T16, Pep7 (human, N-terminal biotin); assay: as above
T16 construct: Synthetic 20-mer of human IL-33
T16 peptide: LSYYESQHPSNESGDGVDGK
Description: as §1

[17] = target: T17, Pep3 (human, N-terminal biotin); assay: as above
T17 construct: Synthetic 20-mer of human IL-33
T17 peptide: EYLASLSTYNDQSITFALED
Description: as §1

EC50 [1]: 110 pM
OD450 [2]: 0.049 OD450
OD450 [3]: 1.04 OD450
OD450 [4]: 0.053 OD450
OD450 [5]: 0.05 OD450
OD450 [6]: 0.05 OD450
OD450 [7]: 0.056 OD450
OD450 [8]: 0.053 OD450
OD450 [9]: 0.059 OD450
OD450 [10]: 0.054 OD450
OD450 [11]: 0.065 OD450
OD450 [12]: 0.056 OD450
OD450 [13]: 0.074 OD450
OD450 [14]: 0.056 OD450
OD450 [15]: 0.055 OD450
OD450 [16]: 0.055 OD450
OD450 [17]: 0.053 OD450
B1: 874F7 (antibody, V domains shown)
VH: QVQLKESGPGLVAPSHSLSITCNVSGFSLSKYGVHWIRQIPGRGLDWLGVLRAGGSTGYNSALMSRLSISKDSSKSQVFLKMNDLRTDDTAVYFCVRDHYYYSSYGGFVYWGQGTLVTVSA
VL: DIQMTQSPASQSASLGESVTITCLASQTIGAWLAWYRQQPGKSPQLLIYAATRLADGVPSRFSGSGSGTEFSFKINNLQAEDFVSYYCQQLDSSPYTFGGGTRLEM
notes: Murine hybridoma antibody purified on Protein G; also called murine antibody 874F7
